According to article PMC7136553:

Assays:
[1] = biological target: C3(x)2 from methylamine treated C3 (peak 3 of the MonoS cation exchange column) (human) (UniProt P01024)
[2] = biological target: C3b (human) (UniProt P01024)
[3] = biological target: C3(x)1 from methylamine treated C3 (peak 2 of the MonoS cation exchange column) (human) (UniProt P01024)

Factor B (natural protein)
FB remaining after addition of FD (Wes immunoassay with a mAb to Bb), 1-120 min at 37°C in VB++: all at 1–5 min, 90% at 15 min, 60% at 120 min [1]: 90% | FB remaining after addition of FD (Wes immunoassay with a mAb to Bb), 1-120 min at 37°C in VB++: 90% at 1 min, ca. 60% at 5 min, 25% at 15 min, almost all consumed at 30 min [2]: 90% | FB remaining after addition of FD (Wes immunoassay with a mAb to Bb), 1-120 min at 37°C in VB++: practically all at 1 min, 85% at 5 min, 60% at 15 min, 30–40% at 60–120 min [3]: 85%
